Laboratory results published in publication PMC12078605.
“And” between values parts separate entries of the source, which are not always exact repeats. Equal values may be shown once.

Target: Shiga toxin 2a B-subunit (StxB2a) (E. coli (endogenous in STEC/EHEC strains TS18/08, LB226692, HUSEC003, HUSEC004, HUSEC008, HUSEC018))
Assay: native gel or EMSA

Substance: Shiga toxin 2a B-subunit (StxB2a) (natural protein)
- stoichiometry N: 2 and 3 and 5
